In US11419921B2, “Methods of treating neurological disorders” (EnClear Therapies, Inc., priority 2018, dated 2022):

Tested on: (GR)10
Assay: Cleavage of (GR)10 by enzymes in solution (PBS with CaCl2 and MgCl2), LC/MS of GR repeats
Assay type: biochemical
Conditions: for (GR)1 concentration / (GR)2 concentration / (GR)3 concentration / (GR)4 concentration / (GR)5 concentration / (GR)6 concentration / (GR)8 concentration / (GR)10 concentration: (GR)10 50 μM; for (GR)1 / (GR)2 / (GR)3 / (GR)4 / (GR)5 / (GR)6 / (GR)8 / (GR)10: PBS, normalized
Procedure: • (GR)10 dipeptide (also (GR)8, (GR)6, (GR)4, (GR)2) were synthetized by solid-phase synthesis by CanPeptide; All peptides are uncapped and supplied lyophilized with TFA as counter ions. Purity was always above 95%. • Buffer: PBS buffer containing CaCl2 and MgCl2. • Stock solution of enzyme (e.g., 10 mg/mL) (prepared per manufacturer instructions) in PBS. Activators added as necessary. • Working solution of protein of the desired concentration (e.g., 100 μg/mL) prepared immediately before use by diluting the stock solution (e.g., 5 μL of 10 mg/mL stock solution) in PBS buffer (e.g., in 495 μL of PBS). Exemplary Procedure Using 50 μM Concentrations of (GR)10
25 μL of a 100 μM solution of (GR)10 was added to each well of a 96-well plate. 25 μL of a solution of enzyme (two times the desired final enzyme concentration) was added, and the plates were incubated at room temperature. At the specified time points (5 minutes, 10 minutes, 30 minutes, 60 minutes, and 180 minutes) 2.5 μL of a 10% TFA solution were added to stop the reaction. For the time 0 min well, the TFA was added to the well before addition of the enzyme. After last time point, all samples were further diluted with 150 μL of dilution solution. The quenched reaction mixtures were analyzed by LC/MS to determine the concentration of GR repeats of different lengths.
The chromatography and mass spectrometry conditions utilized are shown in Table 2 and Table 3, respectively.

B1: Trypsin: protease cleaving at the carboxyl side of lysine or arginine; in Table 21 also immobilized in-house on NHS-activated agarose resin (protein, UniProt P00760 24-246, looked up)
Serine protease 1: IVGGYTCGANTVPYQVSLNSGYHFCGGSLINSQWVVSAAHCYKSGIQVRLGEDNINVVEGNEQFISASKSIVHPSYNSNTLNNDIMLIKLKSAASLNSRVASISLPTSCASAGTQCLISGWGNTKSSGTSYPDVLKCLKAPILSDSSCKSAYPGQITSNMFCAGYLEGGKDSCQGDSGGPVVCSGKLQGIVSWGSGCAQKNKPGVYTKVCNYVSWIKQTIASN
(GR)1 concentration (enzyme 2.5 μg/mL, 0 min): BLQ | (GR)2 concentration (enzyme 2.5 μg/mL, 0 min): BLQ | (GR)3 concentration (enzyme 2.5 μg/mL, 0 min): BLQ | (GR)4 concentration (enzyme 2.5 μg/mL, 0 min): BLQ | (GR)5 concentration (enzyme 2.5 μg/mL, 0 min): BLQ | (GR)6 concentration (enzyme 2.5 μg/mL, 0 min): BLQ | (GR)8 concentration (enzyme 2.5 μg/mL, 0 min): 0.5 µM | (GR)10 concentration (enzyme 2.5 μg/mL, 0 min): 52.8 µM | (GR)1 concentration (enzyme 2.5 μg/mL, 5 min): 114.3 µM | (GR)2 concentration (enzyme 2.5 μg/mL, 5 min): 157.8 µM | (GR)3 concentration (enzyme 2.5 μg/mL, 5 min): 0.1 µM | (GR)4 concentration (enzyme 2.5 μg/mL, 5 min): BLQ | (GR)5 concentration (enzyme 2.5 μg/mL, 5 min): BLQ | (GR)6 concentration (enzyme 2.5 μg/mL, 5 min): BLQ | (GR)8 concentration (enzyme 2.5 μg/mL, 5 min): 0.1 µM | (GR)10 concentration (enzyme 2.5 μg/mL, 5 min): 2.2 µM | (GR)1 concentration (enzyme 2.5 μg/mL, 10 min): 124.7 µM | (GR)2 concentration (enzyme 2.5 μg/mL, 10 min): 167.7 µM | (GR)3 concentration (enzyme 2.5 μg/mL, 10 min): 0.1 µM | (GR)4 concentration (enzyme 2.5 μg/mL, 10 min): BLQ | (GR)5 concentration (enzyme 2.5 μg/mL, 10 min): BLQ | (GR)6 concentration (enzyme 2.5 μg/mL, 10 min): BLQ | (GR)8 concentration (enzyme 2.5 μg/mL, 10 min): BLQ | (GR)10 concentration (enzyme 2.5 μg/mL, 10 min): BLQ | (GR)1 concentration (enzyme 2.5 μg/mL, 30 min): 137.7 µM | (GR)2 concentration (enzyme 2.5 μg/mL, 30 min): 144.9 µM | (GR)3 concentration (enzyme 2.5 μg/mL, 30 min): BLQ | (GR)4 concentration (enzyme 2.5 μg/mL, 30 min): BLQ | (GR)5 concentration (enzyme 2.5 μg/mL, 30 min): BLQ | (GR)6 concentration (enzyme 2.5 μg/mL, 30 min): BLQ | (GR)8 concentration (enzyme 2.5 μg/mL, 30 min): BLQ | (GR)10 concentration (enzyme 2.5 μg/mL, 30 min): BLQ | (GR)1 concentration (enzyme 2.5 μg/mL, 60 min): 163.2 µM | (GR)2 concentration (enzyme 2.5 μg/mL, 60 min): 134.1 µM | (GR)3 concentration (enzyme 2.5 μg/mL, 60 min): BLQ | (GR)4 concentration (enzyme 2.5 μg/mL, 60 min): BLQ | (GR)5 concentration (enzyme 2.5 μg/mL, 60 min): BLQ | (GR)6 concentration (enzyme 2.5 μg/mL, 60 min): BLQ | (GR)8 concentration (enzyme 2.5 μg/mL, 60 min): BLQ | (GR)10 concentration (enzyme 2.5 μg/mL, 60 min): BLQ | (GR)1 concentration (enzyme 2.5 μg/mL, 120 min): 215.2 µM | (GR)2 concentration (enzyme 2.5 μg/mL, 120 min): 107.7 µM | (GR)3 concentration (enzyme 2.5 μg/mL, 120 min): BLQ | (GR)4 concentration (enzyme 2.5 μg/mL, 120 min): BLQ | (GR)5 concentration (enzyme 2.5 μg/mL, 120 min): BLQ | (GR)6 concentration (enzyme 2.5 μg/mL, 120 min): BLQ | (GR)8 concentration (enzyme 2.5 μg/mL, 120 min): BLQ | (GR)10 concentration (enzyme 2.5 μg/mL, 120 min): BLQ | (GR)1 concentration (enzyme 10 μg/mL, 0 min): 0.1 µM | (GR)2 concentration (enzyme 10 μg/mL, 0 min): BLQ | (GR)3 concentration (enzyme 10 μg/mL, 0 min): BLQ | (GR)4 concentration (enzyme 10 μg/mL, 0 min): BLQ | (GR)5 concentration (enzyme 10 μg/mL, 0 min): BLQ | (GR)6 concentration (enzyme 10 μg/mL, 0 min): BLQ | (GR)8 concentration (enzyme 10 μg/mL, 0 min): 0.5 µM | (GR)10 concentration (enzyme 10 μg/mL, 0 min): 48.9 µM | (GR)1 concentration (enzyme 10 μg/mL, 5 min): 124.4 µM | (GR)2 concentration (enzyme 10 μg/mL, 5 min): 138.9 µM | (GR)3 concentration (enzyme 10 μg/mL, 5 min): BLQ | (GR)4 concentration (enzyme 10 μg/mL, 5 min): BLQ | (GR)5 concentration (enzyme 10 μg/mL, 5 min): BLQ | (GR)6 concentration (enzyme 10 μg/mL, 5 min): BLQ | (GR)8 concentration (enzyme 10 μg/mL, 5 min): BLQ | (GR)10 concentration (enzyme 10 μg/mL, 5 min): 2.0 µM | (GR)1 concentration (enzyme 10 μg/mL, 10 min): 156.5 µM | (GR)2 concentration (enzyme 10 μg/mL, 10 min): 148.1 µM | (GR)3 concentration (enzyme 10 μg/mL, 10 min): BLQ | (GR)4 concentration (enzyme 10 μg/mL, 10 min): BLQ | (GR)5 concentration (enzyme 10 μg/mL, 10 min): BLQ | (GR)6 concentration (enzyme 10 μg/mL, 10 min): BLQ | (GR)8 concentration (enzyme 10 μg/mL, 10 min): BLQ | (GR)10 concentration (enzyme 10 μg/mL, 10 min): BLQ | (GR)1 concentration (enzyme 10 μg/mL, 30 min): 212.6 µM | (GR)2 concentration (enzyme 10 μg/mL, 30 min): 110.1 µM | (GR)3 concentration (enzyme 10 μg/mL, 30 min): BLQ | (GR)4 concentration (enzyme 10 μg/mL, 30 min): BLQ | (GR)5 concentration (enzyme 10 μg/mL, 30 min): BLQ | (GR)6 concentration (enzyme 10 μg/mL, 30 min): BLQ | (GR)8 concentration (enzyme 10 μg/mL, 30 min): BLQ | (GR)10 concentration (enzyme 10 μg/mL, 30 min): BLQ | (GR)1 concentration (enzyme 10 μg/mL, 60 min): 289.7 µM | (GR)2 concentration (enzyme 10 μg/mL, 60 min): 58.6 µM | (GR)3 concentration (enzyme 10 μg/mL, 60 min): BLQ | (GR)4 concentration (enzyme 10 μg/mL, 60 min): BLQ | (GR)5 concentration (enzyme 10 μg/mL, 60 min): BLQ | (GR)6 concentration (enzyme 10 μg/mL, 60 min): BLQ | (GR)8 concentration (enzyme 10 μg/mL, 60 min): BLQ | (GR)10 concentration (enzyme 10 μg/mL, 60 min): BLQ | (GR)1 concentration (enzyme 10 μg/mL, 120 min): 349.9 µM | (GR)2 concentration (enzyme 10 μg/mL, 120 min): 10.7 µM | (GR)3 concentration (enzyme 10 μg/mL, 120 min): BLQ | (GR)4 concentration (enzyme 10 μg/mL, 120 min): BLQ | (GR)5 concentration (enzyme 10 μg/mL, 120 min): BLQ | (GR)6 concentration (enzyme 10 μg/mL, 120 min): BLQ | (GR)8 concentration (enzyme 10 μg/mL, 120 min): BLQ | (GR)10 concentration (enzyme 10 μg/mL, 120 min): BLQ | (GR)1 (in solution - 5 min reaction): 178.0 µM | (GR)2 (in solution - 5 min reaction): 0.0 µM | (GR)3 (in solution - 5 min reaction): 0.0 µM | (GR)4 (in solution - 5 min reaction): 0.0 µM | (GR)5 (in solution - 5 min reaction): 0.0 µM | (GR)6 (in solution - 5 min reaction): 0.0 µM | (GR)8 (in solution - 5 min reaction): 0.0 µM | (GR)10 (in solution - 5 min reaction): 0.0 µM | (GR)1 (in solution - 60 min reaction): 321.4 µM | (GR)2 (in solution - 60 min reaction): 154.0 µM | (GR)3 (in solution - 60 min reaction): 0.0 µM | (GR)4 (in solution - 60 min reaction): 0.0 µM | (GR)5 (in solution - 60 min reaction): 0.0 µM | (GR)6 (in solution - 60 min reaction): 0.0 µM | (GR)8 (in solution - 60 min reaction): 0.0 µM | (GR)10 (in solution - 60 min reaction): 0.0 µM
